Test results as given in patent US20250276077A1 (IMMUNOME, published 2025).
Where a chain is given by its changes, count along the chain named.

B1: AB-009814 (antibody, mouse IgG2a, V domains shown)
VH: QVQLQQWGAGLLKPSETLSLTCAVYGGSFSDYYWSWIRQPPGKGLEWIGEVNHRGSINYNPSLKSRVTISVDPSKNQFSLKLTSVTAADTAVYYCAKPLRPHCTNGVCYSGDAFDIWGQGTMVTVAS
VL: SYVLTQPPSVSVAPGQTARITCGGNNIGSKNVHWYQQKPGQAPVLVVYDDSDRPSGIPEQFSGSNSGNTATLTISRVEAGDEADYYCQVWDSSSDHLVFGGGTKLTVL
B2: AB-009817 (antibody, mouse IgG2a, V domains shown)
VH: QVQLQQWGAGLLKPSETLSLTCAVYGGSFSDYYWSWIRQPPGKGLEWIGEVNHRGSINYNNYNPSLKSRVTISVDPSKNQFSLKLTSVTAADTAVYYCAKPLRPHCTNAVCYSGDAFDIWGQGTMVTVAS
VL: B1 VL
B3: AB-009813 (antibody, mouse IgG2a, V domains shown)
VH: B2 VH with R54A, A109G
VL: B1 VL
B4: AB-009812 (antibody, mouse IgG2a, V domains shown)
VH: B2 VH with R54S, A109G
VL: B1 VL
B5: AB-009816 (antibody, mouse IgG2a, V domains shown)
VH: B2 VH with P76A, A109G
VL: B1 VL
B6: AB-009808 (antibody, mouse IgG2a, V domains shown)
VH: B1 VH with V51I, R54S, I57T, L99F, A126S
VL: B1 VL
B7: AB-009805 (antibody, mouse IgG2a, V domains shown)
VH: QVQLQQWGAGLLKPSETLSLTCAVYGGSLSDYHWSWIRQPPGKGLEWIGEINHSGSTNYNPSLKSRVTISVDTSKNQFSLKLSSVSAADTAVYYCAKPFRPHCTNGVCHSGDAFDIWGQGTMATVSS
VL: B1 VL
B8: AB-009806 (antibody, mouse IgG2a, V domains shown)
VH: B1 VH with V51I, R54S, I57T, L99F, A126S
VL: B1 VL with S29T
B9: AB-009807 (antibody, mouse IgG2a, V domains shown)
VH: B1 VH with S30N, R54S, I57T, N58S, P73T, T83S, L99F, A126S
VL: B1 VL with V44A
B10: AB-010363 (mouse IgG2a format) (antibody, V domains shown)
VH: B2 VH with D31G, V51I, P76T, T86S, A109G
VL: B1 VL with Q60R, L97V
notes: tested in mIgG2a format
B11: AB-010361 (mouse IgG2a format) (antibody, V domains shown)
VH: B2 VH with D31G, V51I, P76T, T86S, A109G
VL: B1 VL with L97V
notes: tested in mIgG2a format
B12: AB-008873 (mouse IgG2a format) (antibody, V domains shown)
VH: B2 VH with A109G
VL: SYVLTQPPSVSVAPGQTARITCGGNNIGSKNVHWYQQKPGQAPVLVVYDDSDRPSGIPEQFSGSNSGNTATLTISRVEAGDEADYYCQVWDSSSDHLVFGGGTKLTVLG
B13: AB-010143 (antibody, mouse IgG2a, V domains shown)
VH: B2 VH with P76T, A109G
VL: B1 VL with L97V
B14: AB-010148 (antibody, mouse IgG2a, V domains shown)
VH: B2 VH with V51I, P76T, T86S, A109G
VL: B1 VL
B15: AB-010145 (antibody, mouse IgG2a, V domains shown)
VH: B2 VH with P76T, T86S, A109G
VL: B1 VL
B16: AB-010147 (antibody, mouse IgG2a, V domains shown)
VH: B2 VH with P76T, A109G
VL: B1 VL with Q60R
B17: AB-010141 (antibody, mouse IgG2a, V domains shown)
VH: B2 VH with D31G, P76T, A109G
VL: B1 VL
B18: AB-010150 (antibody, mouse IgG2a, V domains shown)
VH: B2 VH with P76T, T86S, A109G, A129S
VL: B1 VL
B19: AB-010146 (antibody, mouse IgG2a, V domains shown)
VH: B2 VH with P76T, A109G, A129S
VL: B1 VL
B20: AB-010144 (antibody, mouse IgG2a, V domains shown)
VH: B2 VH with V51I, P76T, A109G
VL: B1 VL
B21: AB-010151 (antibody, mouse IgG2a, V domains shown)
VH: B2 VH with V51I, P76T, T86S, A109G, A129S
VL: B1 VL

biological target: T1, Human EphA2 (ephrin receptor A2) on cells (human, UniProt P29317 25-976); test: cell-based or functional assay
T1 sequence (P29317 25-976): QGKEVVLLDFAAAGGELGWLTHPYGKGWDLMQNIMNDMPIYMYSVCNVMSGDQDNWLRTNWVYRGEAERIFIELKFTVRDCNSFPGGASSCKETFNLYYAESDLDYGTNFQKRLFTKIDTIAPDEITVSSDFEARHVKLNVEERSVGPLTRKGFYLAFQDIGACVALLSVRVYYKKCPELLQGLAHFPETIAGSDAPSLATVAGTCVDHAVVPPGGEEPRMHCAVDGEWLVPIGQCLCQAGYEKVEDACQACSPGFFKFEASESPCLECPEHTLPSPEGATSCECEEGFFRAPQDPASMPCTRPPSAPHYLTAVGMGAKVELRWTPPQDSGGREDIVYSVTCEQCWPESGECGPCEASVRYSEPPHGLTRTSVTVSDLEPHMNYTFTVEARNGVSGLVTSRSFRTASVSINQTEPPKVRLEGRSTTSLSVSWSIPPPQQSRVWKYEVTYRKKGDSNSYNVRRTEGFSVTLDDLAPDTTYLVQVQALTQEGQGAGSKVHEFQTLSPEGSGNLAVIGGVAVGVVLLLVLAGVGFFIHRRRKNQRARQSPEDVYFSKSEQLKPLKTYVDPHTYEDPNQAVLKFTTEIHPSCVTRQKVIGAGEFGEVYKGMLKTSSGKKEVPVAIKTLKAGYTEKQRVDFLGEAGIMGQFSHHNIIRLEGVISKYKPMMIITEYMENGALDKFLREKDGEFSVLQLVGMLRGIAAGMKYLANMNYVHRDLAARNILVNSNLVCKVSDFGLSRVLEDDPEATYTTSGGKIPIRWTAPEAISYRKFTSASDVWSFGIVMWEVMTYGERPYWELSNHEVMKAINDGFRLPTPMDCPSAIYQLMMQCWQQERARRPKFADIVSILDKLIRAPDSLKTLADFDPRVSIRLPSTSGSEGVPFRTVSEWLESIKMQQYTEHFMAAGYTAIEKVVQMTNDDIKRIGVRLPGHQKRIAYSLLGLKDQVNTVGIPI

Binder	ADCC Delta, A549 cells	ADCC EC50 (nM), A549 cells [nM]
B1	36	62.8
B2	0	
B3	39.9	26
B4	41.1	51
B5	58	12.5

biological target: T1, Human EphA2 (ephrin receptor A2) on …; test: cell-based or functional assay; remark: another data set of the same source

Binder	ADCC Delta activity (%), A549 [%]	ADCP Delta activity (%), A549 [%]
B6	1.31	12.8
B7	5.06	17.3
B8	14.5	17.9
B9	0.4	11.5

biological target: T2, C-terminally His-tagged hEphA2-FN2 (Thr437-Asn534+His tag) (human, UniProt P29317 437-534); test: SPR Biacore T200, 25 C; mIgG2a captured by anti-mouse Fc, hEphA2-FN2-His analyte; steady-state monovalent KD
T2 construct: also called FN2 domain of hEphA2
Procedure: Binding of antibodies to the FN2 domain of hEphA2 was measured using the Biacore® T200 SPR system at 25° C. using HBS-EP+ buffer (0.01 M HEPES pH 7.4, 0.15 M NaCl, 3 mM EDTA, 0.005% v/v Surfactant P20). Antibodies in mIgG2a format were captured at levels between 475-715 RU via an anti-mouse Fc antibody immobilized to a CM5 chip. Binding was assessed using a titration of C-terminally His-tagged hEphA2-FN2 (Thr437-Asn534+His tag) associated for 30 s or 75 s at 30 μL/min. Data was double-reference subtracted using both a surface without captured antibody and from injections of HBS-EP+ buffer. The equilibrium response was measured at 4 seconds before the end of association with a window of 5 seconds and fit using the Biacore T200 Evaluation Software 3.1 with the Steady State Affinity Model.

T2 sequence (P29317 437-534 limits assumed): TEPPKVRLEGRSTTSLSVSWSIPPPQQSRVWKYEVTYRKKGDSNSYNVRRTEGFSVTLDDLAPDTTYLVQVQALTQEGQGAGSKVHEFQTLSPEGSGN

Binder	Kd [nM]
B10	1310
B11	1110
B12	2260

biological target: T1, Human EphA2 (ephrin receptor A2) on …; test: cell-based or functional assay; remark: another data set of the same source

Binder	ADCC EC50 [nM]
B13	25.1
B14	45
B15	48.9
B16	79.4
B17	4.6
B18	65.9
B19	66.8
B20	35.8
B21	33.3

biological target: T1, Human EphA2 (ephrin receptor A2) on …; test: flow cytometry, A549 cells
Procedure: (§1) Surface binding of the antibodies to in vitro grown cell lines was assessed by flow cytometry. Tumor cells were detached from their culture plate using Versene and counted. Cells were staining in BSA-containing buffer with primary antibody for 30 minutes at 4° C. with shaking. Following, cells were washed and stained with secondary PE-labeled antibody for 30 minutes at 4° C. with shaking. Before analysis on an Intellicyt iQue3 scanner, cells were counterstained with DAPI. MedFI values from live, single cells was expressed as fold over isotype control.

Binder	Flow Delta activity (MedFI)	EC50 (read off the curve) [nM]
B6	29500	
B7	75100	
B8	231000	~20
B9	12700	

biological target: T1, Human EphA2 (ephrin receptor A2) on …; test: flow cytometry on A549 cells
Procedure: as §1

Binder	EC50 [nM]	Flow Delta	binding result
B1	11.5	407000	
B2		0	no binding (tested: tested up to 1 µM)
B3	6.8	578000	
B4	9.6	568000	
B5	5.5	670000	
